Assay results reported in patent US20250018005A1.

Assays:
[1] = target: gp120, a protein in the HIV envelope (HIV); assay: competition ELISA, Q-GRFT binding to gp120, PBS control (no α-mannan)
[2] = target: gp120, a protein in the HIV envelope (HIV); assay: competition ELISA, Q-GRFT binding to gp120 in the presence of α-mannan at 0.005 (printed g/mL; the legend of FIG. 3 prints µg/mL)

Work on “Q-Griffithsin (Q-GRFT), recombinant oxidation-resistant variant of griffithsin (M78Q) (from UniProt P84801 1-121)” yielded an EC50 [1] of 72.5 µg/mL and an EC50 [2] of 79.3 µg/mL.
